Results taken from patent US20230287081A1 (published 2023).
Like-named read-outs stand apart in the source and are kept apart here. One block for each binder: values may come before it.

Assays:
Experiment in all cases: ELISA
[1] = target: T1, hPD-L1-hIGg1Fc (SinoBiological) (human, UniProt Q9NZQ7 19-238)
[2] = target: T1, hPD-L1-hIGg1Fc (SinoBiological); remark: listed apart in the source
[3] = target: T1, hPD-L1-hIGg1Fc (SinoBiological); remark: listed apart in the source
[4] = target: T1, hPD-L1-hIGg1Fc (SinoBiological); remark: listed apart in the source

T1 sequence (Q9NZQ7 19-238): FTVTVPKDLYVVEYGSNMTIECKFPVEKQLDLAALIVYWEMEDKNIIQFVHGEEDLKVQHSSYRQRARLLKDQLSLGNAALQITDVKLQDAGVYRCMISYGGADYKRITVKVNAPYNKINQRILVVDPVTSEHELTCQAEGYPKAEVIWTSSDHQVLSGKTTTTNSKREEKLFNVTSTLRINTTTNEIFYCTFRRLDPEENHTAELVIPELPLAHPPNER

EC50 [1]: 68 pM | EC50 [2]: 68 pM
B1: aPD-L1 (antibody, V domains shown)
VH: EVQLLESGGGLVQPGGSLSLSCAASGFSFSSGYDMCWVRQAPGKGLEWIACIAAGSAGITYDANWAKGRFTISRDNSKNTLYLQMNSLRAEDTAVYYCARSAFSFDYAMDLWGQGTLVTVSS
VL: DIQMTQSPSTLSASVGDRVTITCQASQSISSHLNWYQQKPGKAPKLLIYKASTLASGVPSRFSGSGSGTEFTLTISSLQPDDFATYYCQQGYSWGNVDNVFGGGTKVTVL

EC50 [3]: 39.4 pM
B2: PD-1m-aEGFRL (bispecific antibody)
heavy: QVQLQESGPGLVKPSETLSLTCTVSGGSVSSGDYYWTWIRQSPGKGLEWIGHIYYSGNTNYNPSLKSRLTISIDTSKTQFSLKLSSVTAADTAIYYCVRDRVTGAFDIWGQGTMVTVSSASTKGPSVFPLAPSSKSTSGGTAALGCLVKDYFPEPVTVSWNSGALTSGVHTFPAVLQSSGLYSLSSVVTVPSSSLGTQTYICNVNHKPSNTKVDKKVEPKSCDKTHTCPPCPAPPVAGPSVFLFPPKPKDTLMISRTPEVTCVVVDVSHEDPEVKFNWYVDGVEVHNAKTKPREEQYNSTYRVVSVLTVLHQDWLNGKEYKCKVSNKGLPSSIEKTISKAKGQPREPQVYTLPPSRDELTKNQVSLTCLVKGFYPSDIAVEWESNGQPENNYKTTPPVLDSDGSFFLYSKLTVDKSRWQQGNVFSCSVMHEALHNHYTQKSLSLSPGK
light: not shown

EC50 [3]: 1540 pM
B3: PD-1-aEGFRL (bispecific antibody)
heavy: QVQLQESGPGLVKPSETLSLTCTVSGGSVSSGDYYWTWIRQSPGKGLEWIGHIYYSGNTNYNPSLKSRLTISIDTSKTQFSLKLSSVTAADTAIYYCVRDRVTGAFDIWGQGTMVTVSSASTKGPSVFPLAPSSKSTSGGTAALGCLVKDYFPEPVTVSWNSGALTSGVHTFPAVLQSSGLYSLSSVVTVPSSSLGTQTYICNVNHKPSNTKVDKKVEPKSCDKTHTCPPCPAPPVAGPSVFLFPPKPKDTLMISRTPEVTCVVVDVSHEDPEVKFNWYVDGVEVHNAKTKPREEQYNSTYRVVSVLTVLHQDWLNGKEYKCKVSNKGLPSSIEKTISKAKGQPREPQVYTLPPSRDELTKNQVSLTCLVKGFYPSDIAVEWESNGQPENNYKTTPPVLDSDGSFFLYSKLTVDKSRWQQGNVFSCSVMHEALHNHYTQKSLSLSPGK
light: not shown

EC50 [4]: 25.8 pM
B4: PD-1m-aGPC-3L (bispecific antibody)
heavy: QVQLVQSGAEVKKPGASVKVSCKASGYTFTDYEMHWVRQAPGQGLEWMGALDPKTGDTAYSQKFKGRVTLTADKSTSTAYMELSSLTSEDTAVYYCTRFYSYTYWGQGTLVTVSSASTKGPSVFPLAPSSKSTSGGTAALGCLVKDYFPEPVTVSWNSGALTSGVHTFPAVLQSSGLYSLSSVVTVPSSSLGTQTYICNVNHKPSNTKVDKKVEPKSCDKTHTCPPCPAPPVAGPSVFLFPPKPKDTLMISRTPEVTCVVVDVSHEDPEVKFNWYVDGVEVHNAKTKPREEQYNSTYRVVSVLTVLHQDWLNGKEYKCKVSNKGLPSSIEKTISKAKGQPREPQVYTLPPSRDELTKNQVSLTCLVKGFYPSDIAVEWESNGQPENNYKTTPPVLDSDGSFFLYSKLTVDKSRWQQGNVFSCSVMHEALHNHYTQKSLSLSPGK
light: LDSPDRPWNPPTFSPALLVVTEGDNATFTCSFSNTSESFVLNWYRMSPSNQTDKLAAFPEDRSQPGQDSRFRVTQLPNGRDFHMSVVRARRNDSGTYLCGAISLAPKVQIKESLRAELRVTERRAEVPTAHPSPSPRPAGQFQGGGGSGGGGSGGGGSGDVVMTQSPLSLPVTPGEPASISCRSSQSLVHSNRNTYLHWYLQKPGQSPQLLIYKVSNRFSGVPDRFSGSGSGTDFTLKISRVEAEDVGVYYCSQNTHVPPTFGQGTKLEIKRTVAAPSVFIFPPSDEQLKSGTASVVCLLNNFYPREAKVQWKVDNALQSGNSQESVTEQDSKDSTYSLSSTLTLSKADYEKHKVYACEVTHQGLSSPVTKSFNRGEC
